± gives the standard deviation of the averaged measurements.
Tested on: Saccharomyces cerevisiae
Assay: protein stability index of tFT-peptide fusion (C-terminal peptide) (PSI (0-1 scale)); higher = more stable (slower turnover)
Settings: genetic background: wild type; temperature: 30 C
Method: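 Multiplexed protein stability (MPS) profiling in S. cerevisiae. Random 12-aa peptides (tFT-X12 library) are fused to the C-terminus of a sfGFP-mCherry tandem fluorescent timer, after mCherry and a GGGS linker. Cells are FACS-sorted into 8 mCherry/sfGFP bins and deep-sequenced. The protein stability index (PSI) is the read-weighted bin average, scaled from 0 (unstable) to 1 (stable). Only peptides with >10 reads are reported; cells were grown at 30 °C in SC-His with glucose.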
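Further: PSI is a weighted mean of sequencing reads over stability bins, variants kept only with over 10 reads, mCherry proximal and sfGFP distal, peptide attached via GGGS linker.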

Sequence	protein stability index
HNRSFLIPFFPF	0.671 ± 0.085
HPKASNSLRFSS	0.649 ± 0.0072
HPLPPTGPPSPS	0.77 ± 0.041
HPPLAPQPPPPP	0.711 ± 0.033
HPPLPRPPPPPP	0.645 ± 0.057
HPPPLGSSASNS	0.703 ± 0.039
HPPPPSPPSPLP	0.724 ± 0.036
HPPPTPPSPPPP	0.667 ± 0.088
HPPPTSQPPPGP	0.726 ± 0.05
HPPRPPLPRPRL	0.778 ± 0.19
HPPSLPSAPSLP	0.694 ± 0.029
HPPYRHHPAPLR	0.673 ± 0.058
HPQPIPVGGLSF	0.6962 ± 0.0049
HPSGLFSFVCLS	0.567 ± 0.0057
HPSREPLLLCYH	0.618 ± 0.067
HPTDVAISPRPS	0.678 ± 0.023
HPTSHRPLPAAF	0.724 ± 0.0075
HPTSNQATGRAN	0.692 ± 0.077
HREQSTILDLKE	0.715 ± 0.036
HRFFDGVRFPGH	0.692 ± 0.038
HRFPPDLYQHGP	0.645 ± 0.011
HRFPPPRPPPFS	0.729 ± 0.047
HRLTFLDTPSGH	0.781 ± 0.076
HRNAFLLPPFPL	0.695 ± 0.014
HRQERLETKTYF	0.623 ± 0.13

Sequence	protein stability index
HSFASTWYSSPG	0.685 ± 0.0076
HSGPPSPFPLNV	0.718 ± 0.034
HSHTHRHSHGTR	0.7 ± 0.083
HSPPPSLGPVPA	0.6636 ± 0.0049
HSRAPNNWHRGI	0.708 ± 0.043
HSRPRRQPPHSP	0.705 ± 0.018
HSTENGGCTREY	0.646 ± 0.039
HSTPDSAAQEPG	0.673 ± 0.065
HTLQDERNRRRD	0.696 ± 0.072
HTPTFPTSPPPP	0.68 ± 0.016
HTWAFYSETVCL	0.694 ± 0.0092
HVHSLAFPPPAT	0.695 ± 0.068
HVKVGCGNGIVR	0.644 ± 0.014
HVLRCRASLLFL	0.6305 ± 0.0031
HVPFPPTVLNSP	0.667 ± 0.088
HVTHRAVNVPLE	0.674 ± 0.029
HWCQKNKFKAIS	0.669 ± 0.033
HWSVATNMLEQH	0.74 ± 0.054
HYSLSHLRIVLD	0.645 ± 0.011
IAFLSRCWSFYL	0.49 ± 0.014
IAFSINAFCWRG	0.552 ± 0.055
IAMVTLPRLNKS	0.7179 ± 0.0071
IARKCLTGGGVS	0.696 ± 0.065
IAYGCCYKELII	0.63 ± 0.046
ICGLLFNLCKHD	0.622 ± 0.045

Sequence	protein stability index
ICITIRQTRENK	0.668 ± 0.027
ICLMRETAGRED	0.757 ± 0.2
IDCCAGDSMAGI	0.703 ± 0.072
IDKVTNTGSRKV	0.582 ± 0.05
IDSNLCFVKSYT	0.618 ± 0.064
IEGKDSQEREGR	0.706 ± 0.075
IERRCGRCMCFM	0.783 ± 0.1
IESFFLFSFSFP	0.762 ± 0.31
IFKSGLPLRVGL	0.657 ± 0.028
IFRFHRSRNSKY	0.722 ± 0.029
IFWGFSFRGGGC	0.656 ± 0.029
IGDRQIDFFKKD	0.7073 ± 0.0024
IGEAWERGQEAK	0.679 ± 0.027
IGITWDVFLGLG	0.705 ± 0.03
IGKLDYVCWRVL	0.602 ± 0.029
IGLPCSSGCCCH	0.702 ± 0.088
IGLVRPSGTQQT	0.6764 ± 0.006
IGLVVVRPKIMI	0.558 ± 0.012
IGNFTTEVDGWG	0.662 ± 0.036
IGRSPRVLSATP	0.6534 ± 0.0059
IGSFTRTTKKFK	0.723 ± 0.0073
IGSHDTRVVKMD	0.731 ± 0.059
IGSLASRSALLL	0.676 ± 0.0083
IGVAARPWAGAQ	0.706 ± 0.02
IGVNEDSAIVCM	0.562 ± 0.024

Sequence	protein stability index
IGYHGRSLGWKR	0.635 ± 0.082
IHDGKKEGKSQK	0.695 ± 0.017
IHLALYKYEVMG	0.584 ± 0.017
IHQQEVKSRICT	0.592 ± 0.031
IHSPSAYLQPSF	0.761 ± 0.029
IICDIFYCSTVS	0.644 ± 0.01
IIDCQVSFSFLI	0.588 ± 0.063
IIIEYNINRKKI	0.611 ± 0.05
IIKMNERTLTKI	0.692 ± 0.099
IKGSLILRGRGE	0.657 ± 0.025
IKKEKKQKKKKG	0.665 ± 0.098
IKKKKKEKGDST	0.713 ± 0.082
IKKKKKKGIILD	0.71 ± 0.05
IKKKKKKKKKRD	0.652 ± 0.016
IKKKKKKTPKNM	0.714 ± 0.062
IKKKQKIPKNAK	0.678 ± 0.013
IKKNHKENKRKE	0.666 ± 0.016
IKLVVLGPLVWF	0.625 ± 0.018
IKNMWLACFGLY	0.667 ± 0.027
IKNQNKKKKNKK	0.689 ± 0.05
IKPVETEKRECK	0.668 ± 0.094
IKSDCKDRRKRR	0.7233 ± 0.0072
IKTKREKNGVSS	0.722 ± 0.016

Reference: the supplement of paper PMC10724198
